Reference: patent publication US20230143031A1 (published 2023)

Target: T1, NY-ESO antigen (NY-ESO-1) peptide on HLA-A*02:01 (human)
T1 peptide: SLLMWITQC
Test: multimer staining

binding result: recognises
B1: anti-NY-ESO TCR (TCR, V domains shown)
Valpha: KQEVTQIPAALSVPEGENLVLNCSFTDSAIYNLQWFRQDPGKGLTSLLLIQSSQREQTSGRLNASLDKSSGRSTLYIAASQPGDSATYLCAGDNNAGNMLTFGGGTRLMVKP
Vbeta: DAMVIQNPRYQVTQFGKPVTLSCSQTLNHNVMYWYQQKSSQAPKLLFHYYDKDFNNEADTPDNFQSRRPNTSFCFLDIRSPGLGDAAMYLCATSVTDGTALTGELFFGEGSRLTVL
